This note sets out measurements from publication PMC12663309 (2025).

This experiment has as its target human NEK7 recombinant protein (HY-P75935, MCE) (human, UniProt Q8TDX7 1-302, RED-NHS dye label (in the MST only)). Kind of experiment: MST.

human NEK7 recombinant protein (HY-P75935, MCE), sequence (Q8TDX7 whole entry, one chain of several): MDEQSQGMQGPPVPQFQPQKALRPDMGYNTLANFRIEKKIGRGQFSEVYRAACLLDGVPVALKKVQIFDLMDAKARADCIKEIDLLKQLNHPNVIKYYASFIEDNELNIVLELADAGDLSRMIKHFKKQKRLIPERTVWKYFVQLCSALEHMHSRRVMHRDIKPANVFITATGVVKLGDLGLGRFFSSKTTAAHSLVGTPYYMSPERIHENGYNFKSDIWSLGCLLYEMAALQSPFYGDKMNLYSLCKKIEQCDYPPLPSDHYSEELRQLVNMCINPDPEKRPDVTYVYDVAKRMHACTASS

B1: human SDHB recombinant protein (Ag29868, Proteintech) (natural protein)
chain: AQTAAATAPRIKKFAIYRWDPDKAGDKPHMQTYEVDLNKCGPMVLDALIKIKNEVDSTLTFRRSCREGICGSCAMNINGGNTLACTRRIDTNLNKVSKIYPLPHMYVIKDLVPDLSNFYAQYKSIEPYLKKKDESQEGKQQYLQSIEEREKLDGLYECILCACCSTSCPSYWWNGDKYLGPAVLMQAYRWMIDSRDDFTEERLAKLQDPFSLYRCHTIMNCTRTCPKGLNPGKAIAEIKKMMATYKEKKASV
As usually defined, the Kd is the concentration at which binding is half-saturated. For the molecule B1, the Kd is 19.5 µM.
